Data published in the DeepSol protein solubility set.

Test: soluble on expression in E. coli; label from the status in PepcDB or PDB records

Sequence | soluble on expression in E. coli
MGSDKIHHHHHHMYYISLNVKRRKLNKDNNYNEFLTDPIYSRLIENVEKLKDKVFHLSKIVNLQAYMEGFTFYTSSNYRSTPIDVIPRIITSELFFKISNYLVARSYVLNKFIREVYQEGSNPIPDWIVKTTPYFRPEMMGFSPPKDIYIHVYGADIVRVNGVPFILEDNLRIPSGISYSYKAFEYVDRFLPELKEGYDNRVLQINGLDYLYDILRYVSGNKDPIIVILTDGNYNSAYFEHKFISEKLGIILAEPNDIYVKDKEVVVRTVDEGEVHVDVIYRRIEDLDYLTPGLMKAYLRGWVTLANAPGTGVADDKATFVWIPYLAEKYGIKLENVIQPYTICLYEKENLEKVITQPTRYVIKKREGYGGIGLAIVKDDNINVLKEIYKEYENFIAQEVLDFDTVISVVNDSFYETYADMRIFTYYDKVASAVLSRVGIMGSRITNNSSGGMVKPLWIIK | not soluble
MATESGSDSQLRRRRRRDPEGSEKTELSEREPALAVAGSEENDDENEERWVGPLPVEATLAKKRKVLEFERVYLDNLPSASMYERSYMHRDVITHVVCTKTDFIITASHDGHVKFWKKIEEGIEFVKHFRSHLGVIESIAVSSEGALFCSVGDDKAMKVFDVVNFDMINMLKLGYFPGQCEWIYCPGDAISSVAASEKSTGKIFIYDGRGDNQPLHIFDKLHVSPLTQIRLNPVYKAVVSSDKSGMIEYWTGPPHEYKFPKNVNWEYKTDTDLYEFAKCKAYPTSICFSPDGKKIATIGSDRKVRIFRFLTGKLMRVFDESLSMFTELQQMRQQLPDMEFGRRMAVERELEKVDAVRLVNIVFDETGHFVLYGTMLGIKVINVEPNRCVRILGKQENIRVMQLALFQGIAKKHRAAATIEMKASENPVLQNIQADPTIVCTSFKKNRFYMFTKRETEDTKTADSDRDVFNEKPSKEEVMAATQAEGPKRVSDSAIVHTSMGDIHIKLFPVECPKTVENFCVHSRNGYYNGHTFHRIIKGFMIQTGDPTGTGMGGESIWGGEFEDEFHSTLRHDRPYTLSMANAGSNTNGSQFFITVVPTPWLDNKHTVFGRVSKGMEVVQRIFNVKVNPQTDKPYEDVSIINITVK | soluble
MGSDKIHHHHHHMNWMDQPDLYSRYKIFLEILQSKEHISLFDPRLKRYTDILIDLEKPFTTWSTPNHIILVHKTLCLRHFPNKYESSAKRPVLILPPQAGHHSNLADYSPAQSLVRVFHRYGYDVYVTQWLSATTEYKDLGIEDYIRLTDEAVEEVRKRTGVYKIHLVGQCQGGWQASIYTSLFPDKISTLVSAAAPIDVNAKPSPIVEYAQKLSIDVFRFMVNSGGGVMPGKFILQGFKSMQPEEHYVRKYFRLWQMIKEGDEDGVKRFIHFENWYQYTQNLPGRFYLEIVKNIFKENNLTKPGSFQLDGRPVDLRNISCPVIIMAGKKDHITPPEQAFALKNYISTPAADVIEILTEGGHIGTLMGTESLREDWTAVNEVLKLAI | not soluble
MVSAPASASSSPASSSFQSFFWQAAARPRAEPKRQALKRITLMTTDKTSPYEIHDDRFRHLIVGNAELEELYSGCRWAEGPVWFADLNCLLFSDIPNERMLRWVPDGGISVFRQPSNFTNGNTRDRQGRLVSCEHGGRRVTRTEVDGSITVLADSYGGKRLNSPNDVVVKSDGSVWFTDPTYGILSDYEGYKAEPEQKTRNVYRLDPATGKIDIAIDDFVQPNGLAFSPDETKLYVADSSYSHDISRPRHIRVFDVVDGVRLANGREFCNLDNGLPDGFRLDTAGNLWTSAGDGVHCFAPDGRLIGKIKVPQTVANLTFGGPKKNRLFITATKSLYSVYVAATGAQTPLEHHHHHH | soluble
MSHLVYVSRVVAAPIERVWPHLRDFNGLSAWHPGVADSRLEEGGRDDAPGTVRFLSLNPSGYVRERLLMLDDAGRSLRYAIIETDLPMRDYVAGVDLCPVTEGGGTFAQWWADFDVVAGANRDEVARLVGEGVFAAGLQALDQYLRDRQG | soluble
MGSDKIHHHHHHMTVDPSHTIPVSVTGAFCSLNCPHCGAHYLRHMISVDEIPALVKKGYRSFLISGGMLPDGSIPFEKYYEHLKELKESHGLLYNFHVGFQKSKVAKELADVVSMDFFGDETVLKSIYGLALTPQEILDIAHFYENVVFHITVGITGGKITHEEKALEILSQETDTVVLNVFIPTPGTKFGKSFPPDLQEVVKLFEKARKLFKRVILGCMQPRGEYRKKLQSELKDLVDVITKPVGGTGEFKGCCAFIGRG | not soluble
MQLVVARIGRAHGIKGEVTVEVRTDEPELRLGPGAVLATDPASVGPLTIETGRVHSGRLLLRFEGVRDRNGAEALRNTLLIAEVDPDEVPEDPDEYYDHQLMDLDVVTKDGTEVGRITEISHLPSQDLFVVERSDGSEVYIPFVEEIVVEIDLEEQRAVIDPPPGLIDDRAEVDSSDTEAATEADALEHHHHHH | soluble
MAKIALIGASGNAGSRILKELSDRGHQVTAIARNPEKIAALPNVVAKKGDVFDQAALSELLKGHDAVISSVHFTASDPATLIEAVRASGVQRYLVVGGAGSLEIAPGQRVVDLPDFPAAYKAEATKGAEFLDKLKQEKQLDWTFLSPSAEFVPGERTGKFRIGKDNLLSNEQGSRISFEDYAIALADEIEKPQHSRQRFTVGY | not soluble
MSDLSSSLCQLNWLIAKGGLNTVQEIEVPENPNIVGSPVAPAHEGKRRRIFDGADKPPYSYSQLIRLAIEDTPDKKCTLAEIYSFIAHNFQFYRENRNSSWKNSIRHNLSLNKQFSRIEKTDGDRRGWWVCVDPPAKKPRILKGSPVRVNPIYEHLYHNKQDMPNFTPPPEDPFLSEINGNVHELTEHEIRDLNLFESYDLNSSFRDVYNQIFEKSTSPNGKKQAAQIDWLKISLEAAGLDYHDEQELQEVDTDKLKDYVYNGFPAECDSDVSTPRTDSGRHSSSDSVLSATLQPVNNDSDDEYDWDKLL | not soluble
MAHHHHHHMSINRYNYKTMNSLLKDKIPQHFDILPHTTIKCIIHPSVIFTILDAYLRRDEDQTHVIGTLMGSVIDTNLVEISDCFVDKHSLNEGGFLQIIKDHHETMYELKQKIRPRDQVVGWFCSGSELSELSCAVHGWFKEHNSISKFYPHTPLNEPIHLLVDASLESGFLNIKAYVQLPISLVKDYFVHFHEIQTELLPCNVERADVSLVKGNIHAHKDNHTNNLEHNHNNNQIDMNELSLKKLLIMLKQCKSYVQDVIDQKKKGNISVGRYLHKVLSNDTFLTLEKFDSINESVLQDNLMISYLSNLANLQFLIAEKLNSSSLQ | not soluble
GPGSMAELHVIGDLAFGEDFGGKSYFCAFEIVTGEHWRVVEGHTSGCTHIMESDSCGGIAWCFPIDVHYTMGSVEGWPKISMQVWSVDGYGRKDLAGYGVAFVPPPGGEEQEVNVETWKPCFWNPNFFIRLYENLREAVMGGGPVLCDKTMIHTNDERFKLRTISSGSVRLHLNVVARGMERLGVRCA | not soluble
NQVEKSLISSYEQSLNQRIDNLSYYIEQEYKSDNDSTVIKDDVSRILNDFTKSDEVREISFVDKSYEVVGSSKPYGEEVAGKQTTDLIFKRIFSTKQSYLRKYYDPKSKIRVLISAKPVMTENQEVVGAIYVVASMEDVFNQMKTINT | not soluble
AIAGSRGVLSIIFDLDNTLIDTAGAGRTAIQKVCELLKSTHVQESHIRDICERFLRKLLQESFDPSEGKTIDDVRIQHWCEALQETPGTDPDPALASRCYYTWKNTRSQALSLSSEVRALLEELQKNYKLLLLTNGDTQTQREKIEAVRCEGLFSLVVVGGDRPEQKPARSIFTHCFESAGVRPQDCIMVGDSLTTDIQGGINAGVRATVWINAGSKSLPQDSVTPDYTLPTVLHLNEVLAQLA | soluble
MIQGVIQKIAGPAVIAKGMLGARMYDICKVGEEGLVGEIIRLDGDTAFVQVYEDTSGLKVGEPVVSTGLPLAVELGPGMLNGIYDGIQRPLERIREKTGIYITRGVVVHALDREKKWAWTPMVKPGDEVRGGMVLGTVPEFGFTHKILVPPDVRGRVKEVKPAGEYTVEKPVVVLEDGTNLKMYHTWPVRRPRPVQRKLDPNTPFLTGMRILDVLFPVAMGGTAAIPGPFGSGKTVTQQSLAKWSNADVVVYVACGDRGNEMTDVLVEFPELTDPKTGGPLMRRTVLIANTSNMPVAAREASIYVGVTIAEYFRDQGFSVALMADSTSRWAEALREISSRLEEMPAEEGYPPYLAARLAAFYERAGKVITLGGEEGAVTIVGAVSPPGGDMSEPVTQSTLRIVGAFWRLDASLAFRRHFPAINWNGSYSLFTSALDPWYRENVAEDYPELRDAISELLQREAGLQEIVQLVGPDALQDAERLVIEVGRIIREDFLQQNAYHEVDAYCSMKKAYGIMKMILAFYKEAEAAIKRGVSIDEILQLPVLERIGRARYVSEEEFPAYFEEAMKEIQGAFKALA | soluble
NAMYTITDIAPTDAEFIALIAALDAWQETLYPAESNHLLDLSQLPPQTVIALAIRSPQGEAVGCGAIVLSEEGFGEMKRVYIDPQHRGQQLGEKLLAALEAKARQRDCHTLRLETGIHQHAAIALYTRNGYQTRCAFAPYQPDPLSVFMEKPLFADLRSAAL | soluble
METFKDRLVFLWKSEARQAKIASDIEMTIAGFSRIWNEGGLPKSETLKKIKQLKGCSIDWLLTGEGNPFPDEAPKKSLAYDTLGNEVDTDEFVFVPRYDIRAAAGYGQFVDHEEPVFTMAFRRHWIENYVTRDTKNLSVISVKGDSMEGVLNDGDSILVNHGENTPRDGLYVLRINENLLVKRLQIVPGGIINVISANEAYPAFEINLNDLTDDVEIIGRVEWFGRTI | not soluble
MDDATKSSLKAIPLCKTKASPRDGDLWIERLKEEYEAIIAAVQNNKDCDRDWFQLESNERGTKWFGKCWYFHNMVKYEFDVEFDIPITYPVTAPEIALPELDGKTAKMYRGGKICLSEHFKPLWARNTPKFGIAHAFALGLGPWMAVEIPDLIEKGLIQPKA | not soluble
MGSDKIHHHHHHHLKTQAISFVIHFAHRPVKRYDSPLSFLCSRRVQKIKIMLRATSLFITLGLSHSAWALVPPDYQEPPSDFSAEIEAGLQINTGNTESSSFNGRTKLVYDTDKFRQEGVFKAYFASDSEKTTSEKYDVQLQSSYKIYSGYIFARGDFTEDRFGSYTRISTVSTGYGFDAISGDSTKLSLEVGPGYRYNLPQVSESVPDPEADREIILRTAAKFEQKIHEYTSFNADLTAETGEANNTVTLDMSYKNTLFQDWAFKIGMNIKYTEVVPEGSKQTDTVTTFNLLYTFK | not soluble
MRVAFCLYKYFPFGGLQRDFMRIAQTVAARGHQVRVYTQSWEGECPDNFELIRVPVKSRTNHGRNAEYYAWVQHHLRDHPVDRVVGFNKMPGLDVYYAADVCYAEKVAQEKGFFYRLTSRYRHYAAFERATFEHGKPTQLLMLTNKQIADFQKHYQTEAERFHILPPGIYPDRKYSQQIPNSRQIYRQKNGISEQQKLLLQVGSDFTRKGVDRSIEALASLPESLRQNTVLYVVGQDKPKKFAALAERSGVGTNVHFFSGRNDIAELMAAADLLLHPAYQEAAGIVLLEAITAGLPVLTTAVCGYAHYIVDANCGEAMTEPFRQDALNEVLLKALTQPSLRNAWAENARYYADTQDLYSLPEKAADIITGDLDG | not soluble
MGSDKIHHHHHHMLLTRNEPFTAEKIQAKADILELVQFERFCRDNALWDAMETCFTKDSNVKISWFQGTGHGFIEASKKMTNPAPHKIYNTQVWIKNDRAVAIMQATIQTRTIINGVEMELNSDAKLVTRVERIDGKWYINAFEGVYEKDSLMPVVPSKNADVPAELLANFRKSYACLALSLTLNGYEIDNNLPGIDRPEQVTQFFKEADEWLLQ | not soluble
LFNYKPGTSVFSIATAGCNFKCKHCQNWEISQSLPEEVPFSELTPEDVVELAKNYLCEGIAYTYTEPTIFYEFMQETAKLAKKHDLFNVMVTNGYIEKEPLKKLEIDAMNIDIKGNSEFYKKICLAELEPVLETCRLAKKLGIHIEITNLVVPTYNDNPKYIESIINFVKDELGVDTPLHFTAFYPHYKLTSVPSTRMETIKKARDMALNAGLHYVYAGNV | not soluble
